Here are results for seven substances from US6693076.

Test [1] has as its target 125I-[Threonine59]IGF-I binding sites in adult rat brain sections (level of the cerebellum and brain stem) (rat). The experiment in a line: displacement of 0.01 nM 125I-[Thr59]IGF-I from rat brain sections; competitor at 400 pM.
For test [2] the target is unchanged. The experiment in a line: displacement of 0.01 nM 125I-[Thr59]IGF-I from rat brain sections; competitor at 4 pM.
Test [3] has as its target IGF-I receptor in homogenized adult rat brain tissue (cerebral cortex and cerebellum) (rat) (UniProt P24062). The experiment in a line: displacement of 20 pM 125I-[Thr59]IGF-I from homogenised rat brain tissue; competitor at 100 µM; SD 1.4.
Test [4] has the same target. The experiment in a line: displacement of 20 pM 125I-[Thr59]IGF-I from homogenised rat brain tissue; competitor at 100 µM; SD 20.
Test [5] concerns the target 125I-[Threonine59]IGF-I binding sites in adult rat brain sections (level of the cerebellum and brain stem) (rat). Description: displacement of 0.01 nM 125I-[Thr59]IGF-I from rat brain sections; competitor at 200 nM.
Test [6] has as its target IGF-I receptor in homogenized adult rat brain tissue (cerebral cortex and cerebellum) (rat) (UniProt P24062). Description: displacement of 20 pM 125I-[Thr59]IGF-I from homogenised rat brain tissue; competitor at 40 nM; SD 0.7.
The target of test [7] is 125I-[Threonine59]IGF-I binding sites in adult rat brain sections (level of the cerebellum and brain stem) (rat). The experiment in a line: displacement of 0.01 nM 125I-[Thr59]IGF-I from rat brain sections; competitor at 400 nM.
The target in test [8] is IGF-I receptor in homogenized adult rat brain tissue (cerebral cortex and cerebellum) (rat) (UniProt P24062). The experiment in a line: displacement of 20 pM 125I-[Thr59]IGF-I from homogenised rat brain tissue; competitor at 1 mM; SD 1.8.
The target is the same in test [9]. The experiment in a line: displacement of 20 pM 125I-[Thr59]IGF-I from homogenised rat brain tissue; competitor at 100 µM; SD 6.
For test [10] the target is unchanged. Description: displacement of 20 pM 125I-[Thr59]IGF-I from homogenised rat brain tissue; competitor at 100 µM; SD 21.

Chain of IGF-I receptor in homogenized adult rat brain tissue (cerebral cortex and cerebellum) (rat) (P24062 31-1370): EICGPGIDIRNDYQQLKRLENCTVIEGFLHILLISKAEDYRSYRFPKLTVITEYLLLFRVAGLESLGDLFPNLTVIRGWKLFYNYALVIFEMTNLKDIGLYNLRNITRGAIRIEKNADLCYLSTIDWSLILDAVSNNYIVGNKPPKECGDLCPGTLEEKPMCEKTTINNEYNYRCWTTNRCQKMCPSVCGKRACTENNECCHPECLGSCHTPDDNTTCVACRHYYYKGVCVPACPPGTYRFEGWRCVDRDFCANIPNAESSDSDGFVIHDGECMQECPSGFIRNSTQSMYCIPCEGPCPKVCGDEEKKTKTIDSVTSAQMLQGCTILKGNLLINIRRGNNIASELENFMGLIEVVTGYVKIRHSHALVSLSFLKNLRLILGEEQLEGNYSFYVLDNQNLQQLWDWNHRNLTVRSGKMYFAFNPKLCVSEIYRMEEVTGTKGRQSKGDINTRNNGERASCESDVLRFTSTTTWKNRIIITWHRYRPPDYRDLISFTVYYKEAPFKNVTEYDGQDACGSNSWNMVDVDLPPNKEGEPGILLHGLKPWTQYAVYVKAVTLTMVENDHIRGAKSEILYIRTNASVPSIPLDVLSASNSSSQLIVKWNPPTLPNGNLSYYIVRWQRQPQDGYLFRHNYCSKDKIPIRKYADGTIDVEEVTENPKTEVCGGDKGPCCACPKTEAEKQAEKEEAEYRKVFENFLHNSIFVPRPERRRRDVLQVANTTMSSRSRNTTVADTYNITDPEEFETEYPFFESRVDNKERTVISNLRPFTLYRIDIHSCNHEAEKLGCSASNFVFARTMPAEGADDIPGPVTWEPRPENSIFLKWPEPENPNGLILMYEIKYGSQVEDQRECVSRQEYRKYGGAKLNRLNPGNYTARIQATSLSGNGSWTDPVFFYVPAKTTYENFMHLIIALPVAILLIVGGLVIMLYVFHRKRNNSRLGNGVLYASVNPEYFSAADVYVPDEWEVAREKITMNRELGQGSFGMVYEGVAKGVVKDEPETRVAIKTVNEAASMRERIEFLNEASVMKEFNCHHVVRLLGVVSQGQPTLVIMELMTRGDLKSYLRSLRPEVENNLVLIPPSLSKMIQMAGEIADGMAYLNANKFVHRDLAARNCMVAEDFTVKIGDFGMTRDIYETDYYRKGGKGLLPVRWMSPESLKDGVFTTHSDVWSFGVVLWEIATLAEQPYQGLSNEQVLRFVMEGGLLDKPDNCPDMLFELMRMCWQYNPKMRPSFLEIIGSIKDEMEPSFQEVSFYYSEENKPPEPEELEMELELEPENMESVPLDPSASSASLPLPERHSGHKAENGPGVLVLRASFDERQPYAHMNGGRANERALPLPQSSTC
Chain of IGF-II (Somatomedin-A) (P01344 25-91): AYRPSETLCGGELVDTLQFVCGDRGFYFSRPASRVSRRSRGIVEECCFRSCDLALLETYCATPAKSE

For the substance “Human IGF-I (Somatomedin-C) (from UniProt P05019 49-118) (ligand)”, the percent max. bound in test [1] turned out to be 30%; in test [2], 91%.

Turning to IGF-I(30-41) (peptide), in [3], the percent max. bound worked out at 94%.

Substance IGF-I(62-70) (peptide) came in with a percent max. bound in test [4] of 83%. Turning to “IGF-II (Somatomedin-A) (from UniProt P01344 25-91) (ligand)”, the percent max. bound in test [5] came to 50%; in test [6], 92.1%; in test [7], 23%. Substance IGF-II(33-40) (peptide) displayed a percent max. bound in [8] of 92%. IGF-II(54-67) (peptide) had a percent max. bound in [9] of 94%. In test [10], IGF-II(62-67) (peptide) came in with a percent max. bound of 83%.
